Publication PMC7856178 (Archives of biochemistry and biophysics, 2020)
Where two headings read alike, the source gives them in different places.

Tests used:
Experiment in all cases: FRET or BRET
FRET or BRET [1] = biological target: the molecule itself
FRET or BRET [2] = biological target: the molecule itself; remark: listed apart in the source
FRET or BRET [3] = biological target: the molecule itself; remark: listed apart in the source

B1: CYP2E1 labeled with BODIPY-618 maleimide (enzyme, human, UniProt P05181 1-493, looked up)
chain: MSSMWRQVHSSWNLPPGPFPLPIIGNLFQLELKNIPKSFTRLAQRFGPVFTLYVGSQRMVVMHGYKAVKEALLDYKDEFSGRGDLPAFHAHRDRGIIFNNGPTWKDIRRFSLTTLRNYGMGKQGNESRIQREAHFLLEALRKTQGQPFDPTFLIGCAPCNVIADILFRKHFDYNDEKFLRLMYLFNENFHLLSTPWLQLYNNFPSFLHYLPGSHRKVIKNVAEVKEYVSERVKEHHQSLDPNCPRDLTDCLLVEMEKEKHSAERLYTMDGITVTVADLFFAGTETTSTTLRYGLLILMKYPEIEEKLHEEIDRVIGPSRIPAIKDRQEMPYMDAVVHEIQRFITLVPSNLPHEATRDTIFRGYLIPKGTVVVPTLDSVLYDNQEFPDPEKFKPEHFLNENGKFKYSDYFKPFSTGKRVCAGEGLARMELFLLLCAILQHFNLKPLVDPKDIDLSPIHIGFGCIPPRYKLCVIPRS
modifications: BODIPY-618 maleimide label, 2:1 label to protein ratio (labelled residues not stated)
(Lipid/CYP2E1)50% (FRET or BRET [1]): 14400 molar ratio | (Lipid/CYP2E1)50% (FRET or BRET [2]): 176 molar ratio | (Lipid/CYP2E1)50% (FRET or BRET [3]): 604 molar ratio
